In article PMC6657595, “A DNA-Binding Protein Tunes Septum Placement during Bacillus subtilis Sporulation”:

Key:
Assay in all cases: EMSA
Conditions in all cases: 150 mM KCl, 10 mM Tris-HCl pH 8.0; EMSA 10 nM DNA, 30 min, gel at room temperature; BLI 800 nM protein, 30 C
[1] = biological target: T1, RefZ-His6 (WT) (Bacillus subtilis PY79) (UniProt O34970)
T1 sequence: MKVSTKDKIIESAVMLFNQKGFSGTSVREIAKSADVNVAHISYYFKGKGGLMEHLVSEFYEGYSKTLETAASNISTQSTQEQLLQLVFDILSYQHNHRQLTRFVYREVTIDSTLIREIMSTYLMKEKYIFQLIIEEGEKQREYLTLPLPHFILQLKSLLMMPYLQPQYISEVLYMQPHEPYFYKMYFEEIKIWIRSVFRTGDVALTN

[2] = biological target: T2, RefZ E61K-His6 E61K (Bacillus subtilis 168) (UniProt O34970)
T2 sequence: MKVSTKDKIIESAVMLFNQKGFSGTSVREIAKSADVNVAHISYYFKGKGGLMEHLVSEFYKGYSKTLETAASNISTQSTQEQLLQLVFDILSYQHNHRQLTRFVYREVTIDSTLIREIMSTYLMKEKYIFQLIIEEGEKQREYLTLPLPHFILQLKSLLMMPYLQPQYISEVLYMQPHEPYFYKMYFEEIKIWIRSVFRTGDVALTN

[3] = biological target: T3, RefZ E117G-His6 E117G (Bacillus subtilis 168) (UniProt O34970)
T3 sequence: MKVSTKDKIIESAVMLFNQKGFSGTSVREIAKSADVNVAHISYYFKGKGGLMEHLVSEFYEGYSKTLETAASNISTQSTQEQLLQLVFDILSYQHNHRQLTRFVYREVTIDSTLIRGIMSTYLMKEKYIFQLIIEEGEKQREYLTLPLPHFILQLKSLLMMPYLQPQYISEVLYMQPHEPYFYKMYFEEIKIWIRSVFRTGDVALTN

[4] = biological target: T4, RefZ E179K-His6 E179K (Bacillus subtilis 168) (UniProt O34970)
T4 sequence: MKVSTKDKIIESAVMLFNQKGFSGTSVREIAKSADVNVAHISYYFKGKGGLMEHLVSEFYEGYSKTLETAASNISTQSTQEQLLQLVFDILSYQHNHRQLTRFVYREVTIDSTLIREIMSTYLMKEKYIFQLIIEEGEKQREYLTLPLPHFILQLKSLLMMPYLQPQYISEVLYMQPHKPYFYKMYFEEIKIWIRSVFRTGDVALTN

[5] = biological target: T5, RefZ L153R-His6 L153R (Bacillus subtilis 168) (UniProt O34970)
T5 sequence: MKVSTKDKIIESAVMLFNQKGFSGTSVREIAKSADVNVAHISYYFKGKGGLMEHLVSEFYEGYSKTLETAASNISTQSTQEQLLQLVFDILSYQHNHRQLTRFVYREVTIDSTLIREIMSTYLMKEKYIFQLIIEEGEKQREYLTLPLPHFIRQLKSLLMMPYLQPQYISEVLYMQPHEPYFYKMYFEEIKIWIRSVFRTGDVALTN

[6] = biological target: T6, RefZ E117D-His6 E117D (Bacillus subtilis 168) (UniProt O34970)
T6 sequence: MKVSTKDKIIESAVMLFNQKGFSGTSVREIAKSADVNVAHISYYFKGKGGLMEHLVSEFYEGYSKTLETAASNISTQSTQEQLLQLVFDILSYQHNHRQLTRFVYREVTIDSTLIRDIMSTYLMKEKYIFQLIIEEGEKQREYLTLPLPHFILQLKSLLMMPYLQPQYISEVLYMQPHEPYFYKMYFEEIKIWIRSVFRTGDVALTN

[7] = biological target: T7, RefZ R116S-His6 R116S (Bacillus subtilis 168) (UniProt O34970)
T7 sequence: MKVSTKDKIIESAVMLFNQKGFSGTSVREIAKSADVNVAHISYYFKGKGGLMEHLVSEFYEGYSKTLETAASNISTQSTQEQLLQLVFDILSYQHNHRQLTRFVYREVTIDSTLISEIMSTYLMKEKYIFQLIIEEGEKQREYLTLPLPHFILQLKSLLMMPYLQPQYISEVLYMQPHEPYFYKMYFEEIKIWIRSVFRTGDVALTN

[8] = biological target: T8, RefZ R102C-His6 R102C (Bacillus subtilis 168) (UniProt O34970)
T8 sequence: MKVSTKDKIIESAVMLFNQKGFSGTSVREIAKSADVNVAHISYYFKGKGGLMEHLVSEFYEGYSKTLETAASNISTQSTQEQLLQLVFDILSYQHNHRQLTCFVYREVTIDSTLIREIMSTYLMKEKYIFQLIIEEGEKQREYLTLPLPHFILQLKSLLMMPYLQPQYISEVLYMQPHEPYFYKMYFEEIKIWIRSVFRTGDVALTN

[9] = biological target: T9, RefZ R116W-His6 R116W (Bacillus subtilis 168) (UniProt O34970)
T9 sequence: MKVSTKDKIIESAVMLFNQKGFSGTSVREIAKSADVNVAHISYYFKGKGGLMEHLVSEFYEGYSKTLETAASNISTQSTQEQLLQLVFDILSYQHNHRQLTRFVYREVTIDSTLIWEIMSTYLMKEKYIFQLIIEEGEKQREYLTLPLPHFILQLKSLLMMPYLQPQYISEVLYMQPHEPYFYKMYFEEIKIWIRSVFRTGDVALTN

[10] = biological target: T10, RefZ R102S-His6 R102S (Bacillus subtilis 168) (UniProt O34970)
T10 sequence: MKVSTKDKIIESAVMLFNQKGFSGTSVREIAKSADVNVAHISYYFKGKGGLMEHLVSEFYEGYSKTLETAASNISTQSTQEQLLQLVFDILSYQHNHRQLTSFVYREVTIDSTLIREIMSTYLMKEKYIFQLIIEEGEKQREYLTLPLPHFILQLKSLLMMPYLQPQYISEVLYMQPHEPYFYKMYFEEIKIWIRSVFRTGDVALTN

[11] = biological target: T11, RefZ E53K-His6 E53K (Bacillus subtilis 168) (UniProt O34970)
T11 sequence: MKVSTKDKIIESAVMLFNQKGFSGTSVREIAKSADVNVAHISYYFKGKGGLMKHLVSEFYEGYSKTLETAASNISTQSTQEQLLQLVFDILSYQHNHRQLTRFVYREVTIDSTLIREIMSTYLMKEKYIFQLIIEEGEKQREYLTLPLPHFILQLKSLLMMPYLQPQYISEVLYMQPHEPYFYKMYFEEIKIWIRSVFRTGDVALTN

Sequence: ATCAGCGCTCTGGTGATTGCAAGCTGCTGCTGTTGACCGCCTTTTCGTTTTGAACAAACGTTTGATTAAAACAAATAGCCCCCTCTGTTTAGCCGGAGTCGGCCTAATACAGCGACAATCTGCCCCGGGCGAAGCTAAGGCTGTGCAAAA (double strand) [RBML1 150-bp probe]
- binding [1]: binds
- binding [2]: binds
- binding [3]: binds
- binding [4]: binds
- binding [5]: binds more weakly
- binding [6]: binds
- binding [7]: binds
- binding [8]: binds
- binding [9]: binds
- binding [10]: binds
- binding [11]: binds
